Data taken from publication PMC6744409.

Biological target: LptB2FG from Shigella flexneri (Shigella flexneri) (UniProt P0A9V4)

“LptC from Shigella flexneri (subunit of sfLptB2FGC) (from UniProt P0ADW2 1-191) (natural protein)” gave an ATPase activity of purified sfLptB2FGC compared with sfLptB2FG under the same conditions of 50 % less.
